{
  "source": "paper doi:10.1101/2025.05.30.657017",
  "key": {"[1]": {"biological_target": "MtrR, endogenous in M. mazei (Methanosarcina mazei (endogenous in M. mazei))", "assay": "western blot of the strep-tactin eluate"}, "[2]": {"biological_target": "strep-tagged soluble domain of the MtrA subunit (M1 - S168), RED labeled (Methanosarcina mazei) (UniProt O59640)", "sequence (O59640 1-168)": "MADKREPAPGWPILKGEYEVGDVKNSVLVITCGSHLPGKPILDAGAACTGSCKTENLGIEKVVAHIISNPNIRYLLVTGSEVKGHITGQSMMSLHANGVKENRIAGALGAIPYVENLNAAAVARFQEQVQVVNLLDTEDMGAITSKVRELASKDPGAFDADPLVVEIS", "assay": "MST"}, "[3]": {"biological_target": "MtrR-His6 constitutively expressed in M. mazei (pRS2087) (Methanosarcina mazei Gö1)", "assay": "IMAC purification and western blot"}},
  "data": [
    {"substance": "MtrR, endogenous in M. mazei (natural protein)", "values": [
      {"measurement": "stoichiometry N", "setting": "[1]", "value": 2}
    ]},
    {"substance": "MtrR-His6 (small protein MtrR encoded by small ORF16, C-terminal his-tag), heterologously expressed in E. coli (natural protein)", "values": [
      {"measurement": "Kd", "setting": "[2]", "value": 110, "unit": "nM"}
    ]},
    {"substance": "MtrR-His6 constitutively expressed in M. mazei (pRS2087) (natural protein)", "values": [
      {"measurement": "stoichiometry N", "setting": "[3]", "value": 2}
    ]}
  ]
}
